According to patent US20240376224A1 (University of California, published 2024):

B1: IgG 4A06 (antibody, V domains shown)
VH: EVQLVESGGGLVQPGGSLRLSCAASGFNLSYYYIHWVRQAPGKGLEWVASIYSSSSYTSYADSVKGRFTISADTSKNTAYLQMNSLRAEDTAVYYCARAYYGFDYWGQGTLVTVSS
VL: DIQMTQSPSSLSASVGDRVTITCRASQSVSSAVAWYQQKPGKAPKLLIYSASSLYSGVPSRFSGSRSGTDFTLTISSLQPEDFATYYCQQSYYYYPITFGQGTKVEIK
B2: CL03 Fab (Fab, V domains shown)
VH: EVQLVESGGGLVQPGGSLRLSCAASGFNFSSYSIHWVRQAPGKGLEWVASIYPYSGSTYYADSVKGRFTISADTSKNTAYLQMNSLRAEDTAVYYCARQSHSYYSHTWWVSYGMDYWGQGTLVTVSS
VL: DIQMTQSPSSLSASVGDRVTITCRASQSVSSAVAWYQQKPGKAPKLLIYSASSLYSGVPSRFSGSRSGTDFTLTISSLQPEDFATYYCQQSGQRPITFGQGTKVEIKR
notes: also called Fab CL03

Tests used:
[1] = target: T1, c-CDCP1 (Cut 3) on HEK293T cells (human, UniProt Q9H5V8 30-369; Q9H5V8 370-836); assay: flow cytometry, dose response on HEK293T-cCDCP1 cells (CDCP1 WT)
T1 construct: T2A remnants not described; also called HEK293T c-CDCP1
T1 sequence 1: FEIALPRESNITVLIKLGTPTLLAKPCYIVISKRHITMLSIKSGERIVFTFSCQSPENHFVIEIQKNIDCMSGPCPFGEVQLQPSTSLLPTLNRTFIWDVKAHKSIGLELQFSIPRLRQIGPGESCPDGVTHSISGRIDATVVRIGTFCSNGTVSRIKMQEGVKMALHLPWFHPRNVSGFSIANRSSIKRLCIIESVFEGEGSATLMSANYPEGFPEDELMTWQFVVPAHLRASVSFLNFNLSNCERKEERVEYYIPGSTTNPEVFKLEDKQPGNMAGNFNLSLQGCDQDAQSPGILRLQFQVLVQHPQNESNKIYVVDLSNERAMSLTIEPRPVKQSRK
T1 sequence 2: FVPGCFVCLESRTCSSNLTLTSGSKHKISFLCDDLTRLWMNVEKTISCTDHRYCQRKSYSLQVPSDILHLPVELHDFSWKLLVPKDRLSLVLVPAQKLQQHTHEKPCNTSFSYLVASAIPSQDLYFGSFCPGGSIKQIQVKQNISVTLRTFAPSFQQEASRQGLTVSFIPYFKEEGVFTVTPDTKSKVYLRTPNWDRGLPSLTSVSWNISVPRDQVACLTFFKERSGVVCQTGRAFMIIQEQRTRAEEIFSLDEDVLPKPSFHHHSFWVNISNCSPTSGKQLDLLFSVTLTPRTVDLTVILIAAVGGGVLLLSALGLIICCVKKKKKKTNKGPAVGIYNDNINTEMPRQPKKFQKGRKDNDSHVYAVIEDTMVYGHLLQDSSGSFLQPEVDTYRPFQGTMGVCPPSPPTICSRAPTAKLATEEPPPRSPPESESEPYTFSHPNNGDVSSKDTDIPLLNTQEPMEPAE

[2] = target: T2, full-length (uncleaved) human CDCP1 on cells (human, UniProt Q9H5V8 30-836); assay: flow cytometry, dose response on HEK293T-flCDCP1 cells (CDCP1 WT)
T2 construct: HPAC cells express mostly uncleaved CDCP1 (endogenous); also called fl-CDCP1; uncleaved CDCP1 on HPAC cells
T2 sequence: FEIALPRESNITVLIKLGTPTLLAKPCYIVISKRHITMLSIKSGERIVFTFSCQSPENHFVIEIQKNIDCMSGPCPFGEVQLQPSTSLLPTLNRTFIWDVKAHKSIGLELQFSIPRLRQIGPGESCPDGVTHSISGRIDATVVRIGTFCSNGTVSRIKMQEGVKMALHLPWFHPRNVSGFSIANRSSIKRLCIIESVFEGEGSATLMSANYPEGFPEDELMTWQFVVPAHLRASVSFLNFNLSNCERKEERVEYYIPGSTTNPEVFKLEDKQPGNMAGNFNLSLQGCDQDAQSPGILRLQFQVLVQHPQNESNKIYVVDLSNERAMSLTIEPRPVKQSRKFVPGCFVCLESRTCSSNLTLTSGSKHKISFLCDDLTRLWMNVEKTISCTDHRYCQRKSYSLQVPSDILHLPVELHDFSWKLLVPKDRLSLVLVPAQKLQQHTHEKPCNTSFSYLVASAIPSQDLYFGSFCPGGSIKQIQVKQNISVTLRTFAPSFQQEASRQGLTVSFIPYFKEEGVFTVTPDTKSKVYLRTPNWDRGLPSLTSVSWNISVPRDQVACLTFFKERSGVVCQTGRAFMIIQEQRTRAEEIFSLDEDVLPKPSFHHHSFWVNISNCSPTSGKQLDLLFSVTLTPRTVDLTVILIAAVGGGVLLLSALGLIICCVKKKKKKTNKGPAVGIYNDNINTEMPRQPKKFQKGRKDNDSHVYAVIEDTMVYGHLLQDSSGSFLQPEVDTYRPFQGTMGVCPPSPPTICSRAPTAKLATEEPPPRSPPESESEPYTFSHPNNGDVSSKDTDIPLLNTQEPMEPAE

[3] = target: T3, c-CDCP1-Fc (Cut 1) (human, UniProt Q9H5V8 30-365; Q9H5V8 366-667); assay: BLI (Octet), table of in vitro binding affinities
T3 construct: Co-transfection of NTF and CTF-Fc plasmids; not shown: Fc domain
T3 sequence 1: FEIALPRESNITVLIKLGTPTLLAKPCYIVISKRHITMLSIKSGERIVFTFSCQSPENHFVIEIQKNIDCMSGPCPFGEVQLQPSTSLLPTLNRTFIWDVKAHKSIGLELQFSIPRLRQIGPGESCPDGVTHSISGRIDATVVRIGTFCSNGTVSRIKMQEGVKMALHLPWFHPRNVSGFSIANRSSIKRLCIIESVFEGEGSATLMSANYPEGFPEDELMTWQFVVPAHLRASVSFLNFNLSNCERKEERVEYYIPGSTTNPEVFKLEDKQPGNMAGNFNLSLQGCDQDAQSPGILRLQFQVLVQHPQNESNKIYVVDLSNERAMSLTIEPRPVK
T3 sequence 2: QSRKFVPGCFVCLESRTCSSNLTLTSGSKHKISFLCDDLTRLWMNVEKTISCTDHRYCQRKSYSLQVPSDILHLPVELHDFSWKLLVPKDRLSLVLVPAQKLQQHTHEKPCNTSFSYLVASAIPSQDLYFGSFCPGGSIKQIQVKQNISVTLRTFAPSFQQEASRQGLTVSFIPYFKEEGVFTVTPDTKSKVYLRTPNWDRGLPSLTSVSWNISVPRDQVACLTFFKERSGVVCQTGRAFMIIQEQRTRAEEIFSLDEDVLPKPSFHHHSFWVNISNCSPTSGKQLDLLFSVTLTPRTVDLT
Experimental: (§1) BLI experiments were performed using an Octet RED384 instrument (ForteBio). Biotinylated proteins were immobilized on a streptavidin (SA) biosensor and His-tagged proteins were immobilized on a Ni-NTA biosensor. Different concentrations of analyte in PBS pH 7.4+0.05% Tween-20+0.2% BSA (PBSTB) were used as analyte. Affinities (KDS) were calculated from a global fit (1:1) of the data using the Octet RED384 software.

[4] = target: T4, c-CDCP1-Fc (Cut 2) (human, UniProt Q9H5V8 30-368; Q9H5V8 369-667); assay: BLI (Octet), table of in vitro binding affinities
T4 construct: Co-transfection of NTF and CTF-Fc plasmids; not shown: Fc domain
T4 sequence 1: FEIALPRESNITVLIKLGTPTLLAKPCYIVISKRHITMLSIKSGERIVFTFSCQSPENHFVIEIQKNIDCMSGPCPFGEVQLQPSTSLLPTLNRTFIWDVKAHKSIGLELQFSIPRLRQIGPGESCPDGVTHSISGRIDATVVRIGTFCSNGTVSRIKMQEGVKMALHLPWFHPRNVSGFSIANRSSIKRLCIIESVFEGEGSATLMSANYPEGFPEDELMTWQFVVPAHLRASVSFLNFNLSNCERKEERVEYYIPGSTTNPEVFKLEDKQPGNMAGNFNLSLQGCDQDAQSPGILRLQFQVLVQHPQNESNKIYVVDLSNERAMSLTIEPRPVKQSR
T4 sequence 2: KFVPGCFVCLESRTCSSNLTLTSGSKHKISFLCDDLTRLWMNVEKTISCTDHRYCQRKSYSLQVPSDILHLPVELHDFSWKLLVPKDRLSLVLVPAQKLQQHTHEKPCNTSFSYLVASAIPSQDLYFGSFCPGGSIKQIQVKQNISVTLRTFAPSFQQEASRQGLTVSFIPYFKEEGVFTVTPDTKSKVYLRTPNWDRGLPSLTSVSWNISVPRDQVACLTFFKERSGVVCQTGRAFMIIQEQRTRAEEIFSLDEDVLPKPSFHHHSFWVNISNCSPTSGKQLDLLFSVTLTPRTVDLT
Experimental: as §1

[5] = target: T5, c-CDCP1-Fc (Cut 3) (human, UniProt Q9H5V8 30-369; Q9H5V8 370-667); assay: BLI (Octet), table of in vitro binding affinities
T5 construct: Co-transfection of NTF and CTF-Fc plasmids; not shown: Fc domain
T5 sequence 1: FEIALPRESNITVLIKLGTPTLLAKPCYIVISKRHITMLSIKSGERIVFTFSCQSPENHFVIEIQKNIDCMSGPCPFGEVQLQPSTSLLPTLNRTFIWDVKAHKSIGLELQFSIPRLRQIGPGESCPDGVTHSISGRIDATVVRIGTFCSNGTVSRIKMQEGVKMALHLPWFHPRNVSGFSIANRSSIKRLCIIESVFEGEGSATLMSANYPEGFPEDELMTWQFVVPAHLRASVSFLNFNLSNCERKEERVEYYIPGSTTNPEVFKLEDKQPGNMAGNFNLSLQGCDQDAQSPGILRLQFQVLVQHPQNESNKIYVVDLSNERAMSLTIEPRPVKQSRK
T5 sequence 2: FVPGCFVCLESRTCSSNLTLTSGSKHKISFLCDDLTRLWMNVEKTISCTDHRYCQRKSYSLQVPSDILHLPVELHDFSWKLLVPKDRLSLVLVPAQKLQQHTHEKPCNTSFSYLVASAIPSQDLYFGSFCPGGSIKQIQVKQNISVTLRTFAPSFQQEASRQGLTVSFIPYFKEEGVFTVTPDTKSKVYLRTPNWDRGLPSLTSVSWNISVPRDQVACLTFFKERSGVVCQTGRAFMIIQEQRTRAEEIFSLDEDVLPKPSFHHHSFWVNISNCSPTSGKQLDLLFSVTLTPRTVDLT
Experimental: as §1

[6] = target: T6, NTF immobilized via the N-termini (human, UniProt Q9H5V8 30-367, limits assumed); assay: multipoint BLI (Octet), His-NTF on a Ni-NTA biosensor, CL03 Fab at 100, 50, 25, 12.5, 6.25 nM
T6 sequence: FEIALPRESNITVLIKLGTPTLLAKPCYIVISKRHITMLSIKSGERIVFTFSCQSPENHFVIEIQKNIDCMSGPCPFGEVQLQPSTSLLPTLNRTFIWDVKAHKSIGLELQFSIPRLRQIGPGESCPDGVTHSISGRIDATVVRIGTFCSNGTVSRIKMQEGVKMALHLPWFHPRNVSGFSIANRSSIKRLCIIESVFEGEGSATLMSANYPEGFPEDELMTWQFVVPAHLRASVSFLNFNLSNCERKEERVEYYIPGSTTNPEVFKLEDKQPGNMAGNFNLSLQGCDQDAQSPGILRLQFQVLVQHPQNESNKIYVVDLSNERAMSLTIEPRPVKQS
Experimental: as §1
(§2) To investigate the binding mechanism of CL03, the binding of CL03 to different CDCP1 antigens was measured by BLI using standard methods. In instances when the C-termini of the NTF was immobilized either via an Fc domain or directly to the biosensor surface, there was no binding of CL03 (FIG. 6A-FIG. 6B). In instances when the NTF was immobilized via the N-termini, CL03 bound NTF at similar affinity to the full c-CDCP1 antigen (FIG. 6B-FIG. 6C). Additionally, it was observed that CL03 recognized an uncleaved CDCP1 variant where a 16-amino acid linker was inserted between CUB1 and CUB2 at the R368/K369 proteolysis site (FIG. 6D).

[7] = target: T7, c-CDCP1 (Cut 3) ectodomain (human, UniProt Q9H5V8 30-369; Q9H5V8 370-667); assay: multipoint BLI (Octet), c-CDCP1 (Cut 3) held by its His-tag on a Ni-NTA biosensor, CL03 Fab at 100, 50, 25, 12.5, 6.25 nM
T7 construct: Made by co-transfection of NTF and CTF plasmids, purified by Ni-NTA (tag not described); also called cCDCP1 ECD cut 3
T7 sequence 1: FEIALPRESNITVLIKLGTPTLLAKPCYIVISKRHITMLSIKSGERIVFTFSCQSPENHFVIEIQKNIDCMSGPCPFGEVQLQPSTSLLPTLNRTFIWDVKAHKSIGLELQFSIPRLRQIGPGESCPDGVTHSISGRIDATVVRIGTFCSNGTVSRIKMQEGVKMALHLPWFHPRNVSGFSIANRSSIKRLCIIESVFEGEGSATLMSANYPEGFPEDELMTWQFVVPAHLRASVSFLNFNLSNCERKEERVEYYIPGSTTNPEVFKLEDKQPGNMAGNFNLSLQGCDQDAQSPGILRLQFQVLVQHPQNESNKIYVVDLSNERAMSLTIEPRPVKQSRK
T7 sequence 2: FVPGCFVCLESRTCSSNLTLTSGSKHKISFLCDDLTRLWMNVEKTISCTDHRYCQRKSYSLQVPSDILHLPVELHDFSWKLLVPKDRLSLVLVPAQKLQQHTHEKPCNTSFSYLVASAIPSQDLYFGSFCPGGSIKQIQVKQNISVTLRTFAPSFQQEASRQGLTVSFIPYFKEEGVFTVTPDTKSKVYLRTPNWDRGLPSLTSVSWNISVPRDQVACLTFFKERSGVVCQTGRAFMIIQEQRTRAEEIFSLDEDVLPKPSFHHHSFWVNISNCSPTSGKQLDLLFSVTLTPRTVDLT
Experimental: as §1, §2

Binder	EC50 (read off the curve) [1] [nM]	EC50 (read off the curve) [2] [nM]	Kd [3] [nM]	koff [3] [s⁻¹]	kon [3] [M⁻¹ s⁻¹]	Kd [4] [nM]	Kd [5] [nM]	Kd [6] [nM]	Kd [7] [nM]
B1	~0.4	~1	–	–	–	–	–	–	–
B2	–	–	2.26	0.000648	288000	3.91	3.59	10.5	9.74
